Measured values from the RNAGym collection of RNA variant scans (doi:10.7554/elife.80360).

B1: CPEB3 Ribozyme (parent)
chain: GGGGGCCACAGCAGAAGCGUUCACGUCGCGGCCCCUGUCAGAUUCUGGUGAAUCUGCGAAUUCUGCUGU

Variants of: B1
Experiment: self-cleavage, relative activity (ratio to wild type); higher = more cleavage; co-transcriptional

Compared with C66U U67A, C66A U69C is higher in self-cleavage: 1.02 for the first, 1.04 for the second.

Compared with C66A U69G, G65U G68A is higher in self-cleavage: 0.882 for the first, 0.919 for the second.

Compared with G65U G68U, C66U G68A is higher in self-cleavage: 0.681 for the first, 0.976 for the second.

Compared with C66U G68U, C66U U69G is higher in self-cleavage: 0.969 for the first, 1.06 for the second.

Going from U67C U69C to G65C G68U, the self-cleavage falls from 1.1 to 0.406.

Going from G65C G68C to G68C U69C, the self-cleavage rises from 0.633 to 1.1.

Going from U67G U69G to U67C G68C, the self-cleavage falls from 1.11 to 1.01.

First: G65A U69C
Second: G65A U69A
The self-cleavage of the first is higher: 1.05 for the first, 0.932 for the second.

Going from C66A U67C to G68A, the self-cleavage rises from 0.925 to 1.01.

Going from G68C to G68U, the self-cleavage rises from 1 to 1.01.

Going from U67G G68A to G65A C66A, the self-cleavage falls from 1.08 to 0.75.

First: C66G U67C
Second: G65C U67A
The self-cleavage of the first is higher: 0.914 for the first, 0.589 for the second.

Compared with G65U U69G, G65C U69C is higher in self-cleavage: 0.94 for the first, 1.05 for the second.

First: G65C U69G
Second: U67C
The self-cleavage of the first is lower: 0.862 for the first, 0.997 for the second.

Compared with U67A, U67G is higher in self-cleavage: 0.989 for the first, 1.02 for the second.

First: C66G G68C
Second: C66G G68U
The self-cleavage of the first is lower: 0.735 for the first, 0.932 for the second.

First: G65C C66A
Second: G68A U69A
The self-cleavage of the first is lower: 0.788 for the first, 1.08 for the second.

Compared with G68A U69C, C66A G68A is lower in self-cleavage: 1.05 for the first, 0.87 for the second.
